Target: the molecule itself
Test: cryo-EM structure; purified ClC-6 in 150 mM NaCl, 0.1% digitonin, 20 mM Hepes pH 7.4; apo, with 2 mM ATP and 2 mM MgCl2, and the Y553C mutant; C2 symmetry imposed

Protein	stoichiometry N	binding result
human ClC-6 (natural protein, ClC-6 (chloride-proton exchanger), human; cDNA in the pEG BacMam vector; residues up to H851 are seen in the structure, so the whole protein is likely; also called WT ClC-6; apo-ClC-6; source: HEK293F cells, BacMam virus, purified (Strep-Tactin Sepharose, size exclusion chromatography) in digitonin) MAGCRGSLCCCCRWCCCCGERETRTPEELTILGETQEEEDEILPRKDYESLDYDRCINDPYLEVLETMDNKKGRRYEAVKWMVVFAIGVCTGLVGLFVDFFVRLFTQLKFGVVQTSVEECSQKGCLALSLLELLGFNLTFVFLASLLVLIEPVAAGSGIPEVKCYLNGVKVPGIVRLRTLLCKVLGVLFSVAGGLFVEKEGPMIHSGSVVGAGLPQFQSISLRKIQFNFPYFRSDRDKRDFVSAGAAAGVAAAFGAPIGGTLFSLEEGSSFWNQGLTWKVLFCSMSATFTLNFFRSGIQFGSWGSFQLPGLLNFGEFKCSDSDKKCHLWTAMDLGFFVVMGVIGGLLGATFNCLNKRLAKYRMRNVHPKPKLVRVLESLLVSLVTTVVVFVASMVLGECRQMSSSSQIGNDSFQLQVTEDVNSSIKTFFCPNDTYNDMATLFFNPQESAILQLFHQDGTFSPVTLALFFVLYFLLACWTYGISVPSGLFVPSLLCGAAFGRLVANVLKSYIGLGHIYSGTFALIGAAAFLGGVVRMTISLTVILIESTNEITYGLPIMVTLMVAKWTGDFFNKGIYDIHVGLRGVPLLEWETEVEMDKLRASDIMEPNLTYVYPHTRIQSLVSILRTTVHHAFPVVTENRGNEKEFMKGNQLISNNIKFKKSSILTRAGEQRKRSQSMKSYPSSELRNMCDEHIASEEPAEKEDLLQQMLERRYTPYPNLYPDQSPSEDWTMEERFRPLTFHGLILRSQLVTLLVRGVCYSESQSSASQPRLSYAEMAEDYPRYPDIHDLDLTLLNPRMIVDVTPYMNPSPFTVSPNTHVSQVFNLFRTMGLRHLPVVNAVGEIVGIITRHNLTYEFLQARLRQHYQTI	2	
ClC-6 mutant (Y553C) (natural protein, human, ClC-6, human, with the disease-causing patient variant p.Y553C; made as apo-ClC-6; Variant found in patients (heterozygous p.Y553C), so the origin is written as natural; also called Y553C mutant; p.Y553C; source: HEK293F cells, BacMam virus, purified (Strep-Tactin Sepharose, size exclusion chromatography) in digitonin) MAGCRGSLCCCCRWCCCCGERETRTPEELTILGETQEEEDEILPRKDYESLDYDRCINDPYLEVLETMDNKKGRRYEAVKWMVVFAIGVCTGLVGLFVDFFVRLFTQLKFGVVQTSVEECSQKGCLALSLLELLGFNLTFVFLASLLVLIEPVAAGSGIPEVKCYLNGVKVPGIVRLRTLLCKVLGVLFSVAGGLFVEKEGPMIHSGSVVGAGLPQFQSISLRKIQFNFPYFRSDRDKRDFVSAGAAAGVAAAFGAPIGGTLFSLEEGSSFWNQGLTWKVLFCSMSATFTLNFFRSGIQFGSWGSFQLPGLLNFGEFKCSDSDKKCHLWTAMDLGFFVVMGVIGGLLGATFNCLNKRLAKYRMRNVHPKPKLVRVLESLLVSLVTTVVVFVASMVLGECRQMSSSSQIGNDSFQLQVTEDVNSSIKTFFCPNDTYNDMATLFFNPQESAILQLFHQDGTFSPVTLALFFVLYFLLACWTYGISVPSGLFVPSLLCGAAFGRLVANVLKSYIGLGHIYSGTFALIGAAAFLGGVVRMTISLTVILIESTNEITCGLPIMVTLMVAKWTGDFFNKGIYDIHVGLRGVPLLEWETEVEMDKLRASDIMEPNLTYVYPHTRIQSLVSILRTTVHHAFPVVTENRGNEKEFMKGNQLISNNIKFKKSSILTRAGEQRKRSQSMKSYPSSELRNMCDEHIASEEPAEKEDLLQQMLERRYTPYPNLYPDQSPSEDWTMEERFRPLTFHGLILRSQLVTLLVRGVCYSESQSSASQPRLSYAEMAEDYPRYPDIHDLDLTLLNPRMIVDVTPYMNPSPFTVSPNTHVSQVFNLFRTMGLRHLPVVNAVGEIVGIITRHNLTYEFLQARLRQHYQTI		binds
